Source: US20110098212A1 (LONDON SCHOOL OF HYGIENE AND TROPICAL MEDICINE, published 2011)

Columns and labels:
chemokine receptor CCR8 = chemokine receptor CCR8 (human, UniProt P51685 1-355); assay: cell-based or functional assay
chemokine receptor CCR4 = biological target: T1, chemokine receptor CCR4 (human, UniProt P51679 1-360); assay: cell-based or functional assay
T1 sequence (looked up): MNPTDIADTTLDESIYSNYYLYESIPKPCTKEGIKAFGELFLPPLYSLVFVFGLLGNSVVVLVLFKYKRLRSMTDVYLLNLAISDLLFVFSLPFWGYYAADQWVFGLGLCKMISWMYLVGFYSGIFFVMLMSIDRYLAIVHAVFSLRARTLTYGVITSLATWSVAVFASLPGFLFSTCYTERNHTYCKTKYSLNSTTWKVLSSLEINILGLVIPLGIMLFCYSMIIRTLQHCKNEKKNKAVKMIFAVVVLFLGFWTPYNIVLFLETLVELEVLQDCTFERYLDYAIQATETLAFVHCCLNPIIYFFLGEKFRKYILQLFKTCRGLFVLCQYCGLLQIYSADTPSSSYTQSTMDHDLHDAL

chemokine receptor CCR6 = biological target: T2, chemokine receptor CCR6 (human, UniProt P51684 1-374); assay: cell-based or functional assay
T2 sequence (looked up): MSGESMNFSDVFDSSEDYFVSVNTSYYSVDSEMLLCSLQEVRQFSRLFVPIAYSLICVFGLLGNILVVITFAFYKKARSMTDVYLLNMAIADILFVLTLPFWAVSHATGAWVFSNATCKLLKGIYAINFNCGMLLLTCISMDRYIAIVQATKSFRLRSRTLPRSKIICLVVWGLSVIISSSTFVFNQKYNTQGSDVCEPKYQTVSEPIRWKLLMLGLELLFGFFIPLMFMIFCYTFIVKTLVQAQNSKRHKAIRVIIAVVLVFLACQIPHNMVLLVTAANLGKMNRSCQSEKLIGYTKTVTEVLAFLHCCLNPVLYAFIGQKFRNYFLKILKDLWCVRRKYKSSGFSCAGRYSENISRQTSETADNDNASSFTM

chemokine receptor CCR1 = biological target: T3, chemokine receptor CCR1 (human, UniProt P32246 1-355); assay: cell-based or functional assay
T3 sequence (looked up): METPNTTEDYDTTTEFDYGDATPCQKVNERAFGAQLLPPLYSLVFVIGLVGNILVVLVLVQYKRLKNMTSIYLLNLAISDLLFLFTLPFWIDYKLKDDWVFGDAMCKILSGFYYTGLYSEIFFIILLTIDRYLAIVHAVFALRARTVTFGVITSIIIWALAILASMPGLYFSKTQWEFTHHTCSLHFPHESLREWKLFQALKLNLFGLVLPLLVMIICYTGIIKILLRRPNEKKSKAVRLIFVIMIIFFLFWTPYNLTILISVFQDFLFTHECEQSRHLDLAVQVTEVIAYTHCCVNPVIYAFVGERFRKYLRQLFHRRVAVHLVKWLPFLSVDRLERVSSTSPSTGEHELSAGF

[1] = biological target: human chemokine receptor CCR5 (human, UniProt P51681 1-352)
Sequence of human chemokine receptor CCR5 (P51681 whole entry): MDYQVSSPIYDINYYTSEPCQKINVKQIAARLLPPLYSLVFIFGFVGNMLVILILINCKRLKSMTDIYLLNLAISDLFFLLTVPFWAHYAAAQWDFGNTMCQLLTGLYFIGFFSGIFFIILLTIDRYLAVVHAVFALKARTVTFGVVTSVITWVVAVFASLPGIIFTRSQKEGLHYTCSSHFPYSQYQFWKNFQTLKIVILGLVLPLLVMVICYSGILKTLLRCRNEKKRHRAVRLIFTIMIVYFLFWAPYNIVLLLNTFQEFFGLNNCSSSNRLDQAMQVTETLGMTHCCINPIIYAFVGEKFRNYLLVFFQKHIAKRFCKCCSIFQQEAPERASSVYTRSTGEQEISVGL

B1: HHV-6 U83A, native full length mature chemokine (ligand)
chain: FICSSPDAELFSEKSRMSSSVLLGCLLCCMDWSAAVPGKTEPFRKLFDAIMIKKLKSCSAAYPSDLEQGSMCDMADASPTSLELGLSKLDKES
EC50, calcium mobilisation in CCR8-CHO cells (chemokine receptor CCR8): 6.42 nM | calcium mobilisation at 10 nM U83A, percent of the response to endogenous ligand (chemokine receptor CCR8): 65% | calcium mobilisation at 100 nM U83A, percent of the response to endogenous ligand (chemokine receptor CCR8): 85% | EC50, calcium mobilisation in CCR4-CHO cells (chemokine receptor CCR4): 8.96 nM | calcium mobilisation at 10 nM U83A, percent of the response to endogenous ligand (chemokine receptor CCR4): 50% | calcium mobilisation at 100 nM U83A, percent of the response to endogenous ligand (chemokine receptor CCR4): 84% | minimal effective dose, calcium mobilisation (chemokine receptor CCR4): 7.5 nM | EC50, calcium mobilisation in CCR6-CHO cells (chemokine receptor CCR6): 10.3 nM | calcium mobilisation at 10 nM U83A, percent of the response to endogenous ligand (chemokine receptor CCR6): 35% | calcium mobilisation at 100 nM U83A, percent of the response to endogenous ligand (chemokine receptor CCR6): 80% | minimal effective dose, calcium mobilisation (chemokine receptor CCR6): 7.5 nM | EC50, calcium mobilisation in CCR1-CHO cells (chemokine receptor CCR1): 9.17 nM | calcium mobilisation at 10 nM U83A, percent of the response to endogenous ligand (chemokine receptor CCR1): 60% | minimal effective dose, calcium mobilisation (chemokine receptor CCR1): 7.5 nM | IC50 [1]: 0.11 nM

B2: CCL3/MIP-1alpha (ligand, human, UniProt P10147 27-92, looked up)
chain: ADTPTACCFSYTSRQIPQNFIADYFETSSQCSKPGVIFLTKRSRQVCADPSEEWVQKYVSDLELSA
EC50, calcium mobilisation in CCR1-CHO cells (chemokine receptor CCR1): 2.75 nM
